Source: article PMC11228049

Experiments:
untagged βarr2 [1] = target: untagged βarr2 (UniProt P29067); experiment: ITC; βarr1 (15 μM) or βarr2 (20 μM) in the sample cell, 400 μM Gβγ C68S in the syringe; 25 °C; 20 mM HEPES, 150 mM NaCl, 0.02% DDM, pH 7.4; an additional early binding site was excluded, the rest fitted to a one-site model
βarr2 in excess V2Rpp = βarr2 in excess V2Rpp (UniProt P29067); experiment: ITC; βarr form in the sample cell, WT Gβγ in the syringe; 25 °C; 20 mM HEPES, 150 mM NaCl, 0.02% DDM, pH 7.4; one-site model
untagged βarr2 [2] = target: untagged βarr2 (UniProt P29067); experiment: as above

Sequence of UniProt P29067 (P29067 whole entry): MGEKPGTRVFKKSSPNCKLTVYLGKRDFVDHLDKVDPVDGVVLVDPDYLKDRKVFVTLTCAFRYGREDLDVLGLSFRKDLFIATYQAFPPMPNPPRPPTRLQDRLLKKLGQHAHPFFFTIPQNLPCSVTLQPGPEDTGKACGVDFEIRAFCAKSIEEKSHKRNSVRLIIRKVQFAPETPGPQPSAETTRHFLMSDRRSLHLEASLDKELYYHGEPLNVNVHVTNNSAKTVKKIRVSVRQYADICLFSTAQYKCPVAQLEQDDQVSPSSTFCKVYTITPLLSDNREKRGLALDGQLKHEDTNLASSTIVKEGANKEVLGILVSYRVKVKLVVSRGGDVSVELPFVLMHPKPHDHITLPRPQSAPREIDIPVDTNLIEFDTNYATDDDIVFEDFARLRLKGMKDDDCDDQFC

Kd (untagged βarr2 [1]) [nM]	Kd (βarr2 in excess V2Rpp) [nM]	stoichiometry N (βarr2 in excess V2Rpp) [site]	Kd (untagged βarr2 [2]) [nM]	stoichiometry N (untagged βarr2 [2]) [site]	Substance
900	–	–	–	–	Gβ1γ2 with a C68S mutation in Gγ2 (from UniProt P62873 1-340; P59768 1-71) (complex)
–	1800	1	1500	1	recombinant purified WT Gβ1γ2 (from UniProt P62873 1-340; P59768 1-71) (complex)
